The values below come from patent US20260146071A1, “CCR2 INHIBITORS AND METHODS OF USE” (ORION BIOTECHNOLOGY USA Corp., priority 2022, published 2026).

Where no end group is shown, it is not given here.

The target of the first assay is T1, CCR2 (Homo sapiens, UniProt P41597).
T1 construct: endogenous in cells; host or cells: THP-1
T1 sequence (P41597 1-360 isoform P41597-2): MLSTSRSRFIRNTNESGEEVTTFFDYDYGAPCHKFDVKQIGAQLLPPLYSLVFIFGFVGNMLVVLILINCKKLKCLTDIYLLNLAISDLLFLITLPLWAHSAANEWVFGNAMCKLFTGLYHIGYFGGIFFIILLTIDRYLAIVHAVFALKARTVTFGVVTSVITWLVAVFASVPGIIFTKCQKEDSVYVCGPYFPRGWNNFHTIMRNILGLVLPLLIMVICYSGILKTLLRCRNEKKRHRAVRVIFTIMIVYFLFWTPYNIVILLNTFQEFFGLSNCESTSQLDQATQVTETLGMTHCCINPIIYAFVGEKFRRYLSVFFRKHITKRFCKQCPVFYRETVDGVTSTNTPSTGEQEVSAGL
The assay can be described thus: CCR2 inhibitory potency assay, calcium flux method, THP-1 cells stimulated with 100 nM CCL2. The format is cell-based. Particulars: Table 3; CCR2 inhibition; read-out: mean IC50. The procedure:
CCR2 inhibitory potency assay was determined using the calcium flux method.
Ca^2+ flux measurements were performed using an FDSS micro-cell device ([…]). On the day of the experiment, THP-1 cells were seeded 20000 cells/well) to wells of black-walled clear-bottom 384-well plates.
THP-1 cells were loaded with a calcium-sensitive fluorescent dye (Screen Quest™ Fluo-8 No Wash Calcium Assay Kit, AAT Bioquest) according to the manufacturer's instructions, then a first addition of either test sample dilutions or vehicle alone were added. 5 minutes later, cells were stimulated with 100 nM CCL2.
On the technique in general: Calcium assays in cells follow changes in intracellular calcium, usually with a dye or a luminescent sensor.
For the substance “CCL2 variant, N-terminal ISWFTFNAPVT (SEQ ID NO: 22), human CCL2 Met64Nle core [CCL2-M64Nle-1P13]”, the 50% inhibitory concentration (IC50) (usually the midpoint of a concentration-inhibition curve) turned out to be 31.2 nM.
Regarding “CCL2 variant, N-terminal IYGVGWNAPVT (SEQ ID NO: 14), human CCL2 Met64Nle core [CCL2-M64Nle-1P14]”, the IC50 is 9.99 nM.
As for “CCL2 variant, N-terminal MYGLGWNAPVT (SEQ ID NO: 23), human CCL2 Met64Nle core [CCL2-M64Nle-1P19]”, the IC50 is 32.4 nM.
Turning to “CCL2 variant, N-terminal RPYLWKAPVT (SEQ ID NO: 12), human CCL2 Met64Nle core [CCL2-M64Nle-2P5]”, the IC50 amounted to 5.83 nM.
The same measure, in the same setting: with “CCL2 variant, N-terminal SPSYTRAPVT (SEQ ID NO: 31), human CCL2 Met64Nle core [CCL2-M64Nle-2P7]” the figure was 50.2 nM.
Turning to “CCL2 variant, N-terminal TPGH(Nle)KAPVT (SEQ ID NO: 37), human CCL2 Met64Nle core [CCL2-M64Nle-2P4]”, the 50% inhibitory concentration (IC50) came out at 183 nM.
“CCL2 variant, N-terminal TPGHYRAPVT (SEQ ID NO: 39), human CCL2 Met64Nle core [CCL2-M64Nle-2P3]”: the IC50 worked out at 225 nM.
As for “CCL2 variant, N-terminal TPGYLKAPVT (SEQ ID NO: 19), human CCL2 Met64Nle core [CCL2-M64Nle-NGS-MEO-5]”, the IC50 turned out to be 18.4 nM.
With “CCL2 variant, N-terminal VPDWSQAPVT (SEQ ID NO: 18), human CCL2 Met64Nle core [CCL2-M64Nle-1P22]”, the IC50 is 15.3 nM.
Consider “CCL2 variant, N-terminal VTNPTWAPVT (SEQ ID NO: 20), human CCL2 Met64Nle core [CCL2-M64Nle-1P02-F1V]”, for which the half-inhibitory concentration (IC50) was 24.6 nM.
Take “CCL2 variant, N-terminal WRPHWSAPVT (SEQ ID NO: 25), human CCL2 Met64Nle core [CCL2-M64Nle-1P3]”: the half-inhibitory concentration (IC50) was 32.8 nM.
Take “CCL2 variant, N-terminal WVLSSLNAPVT (SEQ ID NO: 17), human CCL2 Met64Nle core [CCL2-M64Nle-1P5]”: the half-maximal inhibitory concentration (IC50) was 14.2 nM.
On to “CCL2 variant, N-terminal WYTVGWNAPVT (SEQ ID NO: 21), human CCL2 Met64Nle core [CCL2-M64Nle-1P16]”, for which the IC50 stood at 26.7 nM.
On to “CCL2-M64Nle-NGS-MESR-1 (SYSWVR; also: part of CCL2 M64Nle construct, placement of chain in protein not given here)”, for which the IC50 was determined as 155 nM.
As to “CCL2-M64Nle-NGS-MESR-5 (AWGGIR; also: part of CCL2 M64Nle construct, placement of chain in protein not given here)”, the half-inhibitory concentration (IC50) was found to be 41.5 nM.

The same assay, now with this note: Table 4; CCR2 inhibition; read-out: mean IC50.
“CCL2 variant, N-terminal FTNPTWKPYA (SEQ ID NO: 91), human CCL2 11-76 Met64Nle core (not fully specified (C-terminus); also: followed C-terminally by human CCL2 11-76 core with Met64Nle) [3P16-CCL2]”: the IC50 worked out at 1.23 nM.
In the case of “CCL2 variant, N-terminal FTNPTWQEYS (SEQ ID NO: 92), human CCL2 11-76 Met64Nle core (not fully specified (C-terminus); also: followed C-terminally by human CCL2 11-76 core with Met64Nle) [3P17-CCL2]”, the IC50 stood at 1 nM.
Still for that read-out and setting: with “CCL2 variant, N-terminal FTNPTWRPST (SEQ ID NO: 80), human CCL2 11-76 Met64Nle core (not fully specified (C-terminus); also: followed C-terminally by human CCL2 11-76 core with Met64Nle) [3P5-CCL2]” the figure was 2.86 nM; with “CCL2 variant, N-terminal FTNPTWSGVT (SEQ ID NO: 81), human CCL2 11-76 Met64Nle core (not fully specified (C-terminus); also: followed C-terminally by human CCL2 11-76 core with Met64Nle) [3P6-CCL2]”, 1.27 nM; with “CCL2 variant, N-terminal FTNPTWSQGV (SEQ ID NO: 94), human CCL2 11-76 Met64Nle core (not fully specified (C-terminus); also: followed C-terminally by human CCL2 11-76 core with Met64Nle) [3P19-CCL2]”, 0.914 nM.
